Data from paper PMC6467748.

Target: mouse-derived mAb 735 (mo735) (mouse)
Experiment: SPR

Kd: 0.0102 µM
Substance: chicken brain-derived polysialylated neural cell adhesion molecule (NCAM) (from UniProt P13590 20-711) (natural protein)
